Reference: doi:10.1101/2023.12.11.571162, “Single molecule studies of the native hair cell mechanosensory transduction complex” (bioRxiv, 2023)

Tests used:
[1] = biological target: the molecule itself; assay: single molecule pull-down (SiMPull), photobleaching step counting; purified recombinant PCDH15/LHFPL5 complex captured by mAb 8D1; labelled in separate experiments with 39G7 Fab-GFP or anti-LHFPL5 Fab-GFP; bleaching steps counted
[2] = biological target: the molecule itself; assay: single molecule pull-down (SiMPull), photobleaching step counting; native complexes from mouse cochlea supernatant captured by mAb 8D1; labelled with 39G7 Fab-GFP or anti-LHFPL5 Fab-GFP; bleaching steps counted

B1: recombinant protocadherin-15 (PCDH15), Mus musculus, His-tagged construct co-expressed with LHFPL5 (natural protein)
chain: not shown
notes: Synthesised by Genscript, cloned into pEG BacMam; also called recombinant PCDH15; His-tagged PCDH15; source: HEK293 tsa201 cells, BacMam co-infection with LHFPL5, purified as a complex (Strep-Tactin, TALON, SEC) in digitonin
[1]
  stoichiometry N: 2

B2: native protocadherin-15 (PCDH15) from mouse cochlea or utricle (natural protein)
chain: not shown
notes: protocadherin-15, mouse, endogenous in cochlea and utricle; also called native PCDH15; source: endogenous, cochlea or utricle of post-natal day 6 mice, detergent supernatant (1% C12M, 0.2% CHS)
[2]
  stoichiometry N: 2
